B1: Cell division control protein 13 (Saccharomyces cerevisiae), P32797 (parent)
chain: MDTLEEPECPPHKNRIFVSSSKDFEGYPSKAIVPVQFVALLTSIHLTETKCLLGFSNFERRGDQSQEDQYLIKLKFKDRGSERLARITISLLCQYFDIELPDLDSDSGASPTVILRDIHLERLCFSSCKALYVSKHGNYTLFLEDIKPLDLVSVISTISTKSTNSSKHSSSELISECDLNNSLVDIFNNLIEMNRDEKNRFKFVKLIHYDIELKKFVQDQQKVLSQKSKAAAINPFFVPNRLGIPYIESQNEFNSQLMTLNVDEPTTDISNMGEEMHDSADPIEDSDSSTTSSTGKYFSSKSYIQSQTPERKTSVPNNWHDDDSGSKRKRKLSFHSPNASSIRKAISYEQLSLASVGSVERLEGKIVGMNPPQFASINEFKYCTLKLYFTQLLPNVPDKVLVPGVNCIEIVIPTRERICELFGVLNCQSDKISDILLLEKPDRISVEVERILWDNDKTASPGMAVWSLKNISTDTQAQAQVQVPAQSSASIDPSRTRMSKMARKDPTIEFCQLGLDTFETKYITMFGMLVSCSFDKPAFISFVFSDFTKNDIVQNYLYDRYLIDYENKLELNEGFKAIMYKNQFETFDSKLRKIFNNGLRDLQNGRDENLSQYGIVCKMNIKVKMYNGKLNAIVRECEPVPHSQISSIASPSQCEHLRLFYQRAFKRIGESAISRYFEEYRRFFPIHRNGSHLAKLRFDEVKHEPKKSPTTPALAEHIPDLNADVSSFDVKFTDISSLLDSSARLPRPQQTHKSNTLYSCEGRIIAIEYHASDLCFHITNELPLLQTRGLAPERVLQLHIITSKNFAYFFNRSSAYLQRQPLEEKYTQLAQFLGHSFKFNITSSLTLFPDTTVALQIWCPIECTFRELQQQLAHPKVAAAPDSGSLDCAINATVNPLRLLAAQNGVTVKKEEDNDDDAGAVPTS
B2: Cell division control protein 13 (Saccharomyces cerevisiae), P32797 (parent)
chain: B1 chain
partner: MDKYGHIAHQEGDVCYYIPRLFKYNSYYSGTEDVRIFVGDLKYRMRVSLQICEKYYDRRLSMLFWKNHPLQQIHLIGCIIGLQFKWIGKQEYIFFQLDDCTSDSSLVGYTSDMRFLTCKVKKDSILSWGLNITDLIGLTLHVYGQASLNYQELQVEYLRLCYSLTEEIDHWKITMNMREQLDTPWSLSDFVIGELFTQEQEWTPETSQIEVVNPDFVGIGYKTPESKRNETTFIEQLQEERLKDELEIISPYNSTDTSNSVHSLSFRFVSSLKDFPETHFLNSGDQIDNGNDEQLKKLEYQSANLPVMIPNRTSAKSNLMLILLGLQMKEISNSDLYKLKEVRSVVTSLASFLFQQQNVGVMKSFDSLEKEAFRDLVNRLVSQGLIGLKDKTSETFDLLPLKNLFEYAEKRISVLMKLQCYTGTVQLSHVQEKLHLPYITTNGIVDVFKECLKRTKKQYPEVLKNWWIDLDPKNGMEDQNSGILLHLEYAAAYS

Variants of: B1
Conditions: with smt3_yeast SMT3, Q12306
smt3_yeast SMT3, Q12306, sequence (Q12306 whole entry): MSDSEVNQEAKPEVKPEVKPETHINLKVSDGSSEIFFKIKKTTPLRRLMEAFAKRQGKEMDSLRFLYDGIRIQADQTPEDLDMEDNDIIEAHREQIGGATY

| effect of a mutation on the interaction | Variant |
| --- | --- |
| disrupting interaction | K909R |

Variants of: B2
Conditions: with stn1_yeast STN1, P38960

| effect of a mutation on the interaction | Variant |
| --- | --- |
| decreasing interaction | K909R |

Source: IntAct's records for PubMed 21743457
